Positions count from the first letter of the chain named.
T1: cynomolgus Trop-2-His protein (cynomolgus, UniProt P09758 27-274 (human entry))
T1 construct: also called cynmolgus Trop-His; Kactus Cat #TRP-CM121; not shown: His tag
T1 chain: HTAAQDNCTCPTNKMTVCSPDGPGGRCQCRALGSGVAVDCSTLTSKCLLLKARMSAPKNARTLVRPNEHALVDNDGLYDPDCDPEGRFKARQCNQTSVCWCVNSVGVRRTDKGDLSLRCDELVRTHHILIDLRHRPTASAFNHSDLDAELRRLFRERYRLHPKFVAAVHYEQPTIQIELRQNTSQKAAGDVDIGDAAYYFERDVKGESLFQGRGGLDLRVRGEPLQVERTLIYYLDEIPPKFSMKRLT

T2: human Trop-2 expressed on cell surface (human, UniProt P09758 27-323)
T2 construct: whole, on cells; also called cell surface Trop-2
T2 sequence (looked up): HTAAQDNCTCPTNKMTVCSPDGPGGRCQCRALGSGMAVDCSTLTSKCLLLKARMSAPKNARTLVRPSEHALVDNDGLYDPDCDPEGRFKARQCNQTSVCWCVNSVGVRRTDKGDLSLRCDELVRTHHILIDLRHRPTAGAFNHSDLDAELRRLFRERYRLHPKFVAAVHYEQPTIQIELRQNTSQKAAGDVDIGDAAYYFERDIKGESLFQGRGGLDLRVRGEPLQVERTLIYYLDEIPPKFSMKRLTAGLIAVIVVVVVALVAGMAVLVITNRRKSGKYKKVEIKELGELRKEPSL

T3: rat Trop-2 (rat, UniProt Q6P9Z6 25-270, limits assumed)
T3 sequence (looked up): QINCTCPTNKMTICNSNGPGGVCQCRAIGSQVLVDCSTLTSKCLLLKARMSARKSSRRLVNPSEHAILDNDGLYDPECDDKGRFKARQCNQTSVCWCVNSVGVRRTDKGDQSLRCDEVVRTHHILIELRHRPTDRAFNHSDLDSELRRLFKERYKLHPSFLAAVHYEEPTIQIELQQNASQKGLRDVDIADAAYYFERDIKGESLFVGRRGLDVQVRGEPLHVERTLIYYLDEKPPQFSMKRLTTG

B1: 1D10 (antibody, V domains shown)
VH: QEQLKESGGGLVQPGGSLTLSCKASGFDFNYYGVSWVRQAPGKGLEWIGYIYPAYHNTYYATWVNGRFTISSHNAQNTLYLQLNTLTAADTATYFCARDAGSTDYNLNLWGPGTLVTVSS
VL: DVVMTQTPASVEVAVGGTVTIKCQASEDIESYLAWYQQKPGQPPRLLIYEASKLASGVSSRFSGGGYGTDFTLTISGVECADAATYYCHQALTIGNVDNPFGGGGEVVVK
notes: Rabbit-derived clone; LEM construct: VH + rabbit IgG CH1 + human IgG1 CH2-CH3
B2: 72F12 (antibody, V domains shown)
VH: B1 VH with T19K, Y31N, G49A, Y55F, T85S, T103V, L107F
VL: DVVMTQTPASVEVAVGGTVTIKCQASKNIDSNLAWYQQKPGQPPKQLIYAASTLASGVSSRFSGSGYGAEFTLTISGVECADAATYYCQQALTIGNVDNPFGGGSEVVVK
notes: as for B1
B3: 62E3 (antibody, V domains shown)
VH: B1 VH with T19K, Y31E, G49A, Y55F, S102T, L107F
VL: B1 VL with P8A, A9S, S10P, E12S, V13A, R45K, G65S, D70E, H89Q, G105S
notes: as for B1
B4: 9F7 (antibody, V domains shown)
VH: B1 VH with Y31N, A100T, L107F
VL: B1 VL with R45K, D70E, H89Q, I94V, G105S
notes: as for B1
B5: 9D7 (antibody, V domains shown)
VH: QSLEESGGDLVQPGASLTLTCKASGFDLNNYSILWVRQAPGKGLEWIGCIYISGGSTYYANWAKGRFAISKTSSTTVTLQMTSLTAADTATYFCARDDGTASYYLNLWGPGTLVTVSS
VL: YDMTQTPASVSEPVGGTVTIKCQASEDIYKLLAWYQQKPGQPPKLLIYAASDLESGVPSRFKGRGSGTDYTLTISDLECADAATYYCQQAYTIGNIDNSFGGGTEVVVK
notes: as for B1
B6: 5D4-1 (antibody, V domains shown)
VH: QQLEESGGGLVKPEGSLTLTCKGSGFDFSGTYWMWWVRQAPGKGLEWIAPIYVGSGSSTYYASWAKGRFTISSTSSTAVTLQATSLTAADTATYFCARGATNNVFMNYFNLWGPGTLVTVSS
VL: FEMTQTPSSVSEPVGGTVTIKCQASEDISSNLGWYQQKPGQPPKLLIYGASTLASGVPSRFKGSGSGTEFTLTISDLEPADAATYYCQTSYYIDDGVNGFGGGTEVVVK
B7: 5D4-2 (antibody, V domains shown)
VH: B6 VH with P50S
VL: B6 VL with P79A
B8: 10A9-2 (antibody, V domains shown)
VH: B5 VH with S32A, I33M, C49S, S56T, Y59F, N61S, K64T, A101T
VL: B5 VL with E12A, P13A, K30S, A49G, D52N, R64S, D69E, C79A, A80D, S99A
B9: 9D7-2 (antibody, V domains shown)
VH: B5 VH with C49S
VL: B5 VL with C79A

Molecular target: T1, cynomolgus Trop-2-His protein
Assay: BLI (Gator Prime), LEM supernatant Ab on HFC probe
Description: After three times of regeneration and neutralization of HFC probe (Gator, Cat #160003), LEM transfection supernatant samples to be tested in K buffer was diluted 1:1 in K buffer and immobilized onto HFC probe. […] The association and dissociation of human or cynomolgus Trop-2-His antigen from antibody was measured on BLI machine Gator Prime. Affinity was calculated using Gator Bio analysis software. Blank control was used for reference subtraction. 1 μg/ml of Sacituzumab govitecan was used as positive control.
Table 23 below summarizes the binding affinity of exemplary anti-Trop-2 antibodies in LEM transfection supernatant samples to human and cynomolgus Trop-2 using Gator.

Row | Kd [nM] | koff [s⁻¹] | kon [M⁻¹ s⁻¹] | Binder
1 | 0.361 | 0.00027 | 688000 | B1
2 | 0.526 | 0.00047 | 898000 | B2
3 | 0.685 | 0.00045 | 651000 | B3
4 | 0.145 | ~0.000112 | 774000 | B4
5 | 0.117 | 3.9e-05 | 528000 | B5

These binders were tested against T2, human Trop-2 expressed on cell surface (assay: flow cytometry, MCF-7 cells).
Description: (§1) Cells were then resuspended in FACS buffer (1×DPBS/1% FBS) at 10⁶/ml concentration. One hundred microliter (100 μl) of cells were aliquoted into a single well in 96 well plates. The antibodies to be tested were serially diluted at 1:3 fold starting at 15 μg/mL and were then added into each well. The antibodies were mixed with cells and the mixtures were incubated on ice for 1 hour. After washing with FACS buffer, one hundred microliter (100 μl) of 1:400 diluted PE-conjugated anti-human Fc secondary antibody (Jackson Immuno Research) was added into each well and incubated for 30 minutes on ice. After washing with FACS buffer, stained cells were resuspended at diluted 7-ADD (Biolegend, used at 1:100 dilution) and analyzed on Guava 11HT or 5HT (Luminex). Data was analyzed using Flowjo software. EC₅₀ values were calculated using GraphPad Prism. Sacitnzurnab govitecan was used as positive control. Anti-HEL.hIgG1 was used as isotype negative control. Similar assay was performed using MCF-7 cells (known to express human Trop-2).

Row | EC50 [nM] | Binder
6 | 0.9 | B1
7 | 0.7 | B2
8 | 0.7 | B3
9 | 0.3 | B4
10 | 1 | B6
11 | 0.8 | B7
12 | 1.2 | B5
13 | 1.8 | B8
14 | 1 | B9

What follows are binders tested against T2, human Trop-2 expressed on cell surface (assay: flow cytometry, MDA-MB-231-GFP cells).
Description: as §1

Row | EC50 [nM] | Binder
15 | 0.01 | B1
16 | 0.01 | B2
17 | 0.01 | B3
18 | 0.03 | B4
19 | 0.01 | B6
20 | 0.04 | B7
21 | 0.03 | B5
22 | 0.04 | B8
23 | 0.1 | B9

Each binder was assayed against T2, human Trop-2 expressed on cell surface (assay: cell-based or functional assay).

Row | Internalization %, MDA-MB-231, 0.25 µg/ml, 2 h [%] | Internalization %, MDA-MB-231, 0.25 µg/ml, 4 h [%] | Internalization %, MDA-MB-231, 0.5 µg/ml, 2 h [%] | Internalization %, MDA-MB-231, 0.5 µg/ml, 4 h [%] | Internalization %, MDA-MB-231, 1 µg/ml, 2 h [%] | Internalization %, MDA-MB-231, 1 µg/ml, 4 h [%] | Internalization %, MDA-MB-231, 2 µg/ml, 2 h [%] | Internalization %, MDA-MB-231, 2 µg/ml, 4 h [%] | Binder
24 | 46 | 53 | 48 | 52 | 41 | 51 | 39 | 44 | B1
25 | 38 | 48 | 42 | 48 | 35 | 45 | 37 | 45 | B2
26 | 41 | 46 | 42 | 45 | 43 | 49 | 43 | 48 | B3
27 | 34 | 38 | 34 | 46 | 33 | 41 | 28 | 31 | B4
28 | 58 | 66 | 56 | 61 | 59 | 64 | 57 | 63 | B6
29 | 55 | 61 | 48 | 57 | 52 | 58 | 57 | 62 | B7
30 | 42 | 52 | 47 | 55 | 43 | 54 | 42 | 49 | B5
31 | 46 | 55 | 44 | 55 | 43 | 57 | 45 | 58 | B8
32 | 52 | 63 | 49 | 58 | 51 | 62 | 48 | 59 | B9

These binders were tested against T3, rat Trop-2 (assay: ELISA, similar to Table 24).

Row | binding result | Binder
33 | no binding | B1
34 | no binding | B2
35 | no binding | B3
36 | no binding | B4
37 | no binding | B6
38 | no binding | B7
39 | no binding | B5
40 | no binding | B8
41 | no binding | B9

— patent US20250206841A1 (ADEPT THERAPEUTICS, published 2025)
